Assay results as given in patent publication US20210246210A1 (JIANGSU ALPHAMAB BIOPHARMACEUTICALS, published 2021).
Each block holds one binder with its values, some of them ahead of it.

Columns and labels:
PD-L1-muFc = molecular target: T1, PD-L1-muFc (human); assay: ELISA, PD-L1-muFc coated, anti-human Fc-HRP detection (FIG. 2, Panel B)
T1 construct: also called soluble human PD-L1
Protocol: (§1) A 96-well plate was coated with PD-L1-muFc (human PD-L1 extracellular domain fused to N-terminus of mouse Fc, its amino acid sequence is as set forth in SEQ ID NO: 53). Various concentrations of the samples as well as control molecules were added. HRP labeled goat anti-human Fc antibody was used for detection. After being developed with TMB, the plate was read at a wavelength of 450/650 nm in a microplate reader.

CTLA4-muFc = molecular target: T2, CTLA4-muFc (human); assay: ELISA, CTLA4-muFc coated, anti-human Fc-HRP detection (FIG. 2, Panel C)
T2 construct: also called soluble human CTLA4
T2 sequence (chain, as listed by the source limits assumed): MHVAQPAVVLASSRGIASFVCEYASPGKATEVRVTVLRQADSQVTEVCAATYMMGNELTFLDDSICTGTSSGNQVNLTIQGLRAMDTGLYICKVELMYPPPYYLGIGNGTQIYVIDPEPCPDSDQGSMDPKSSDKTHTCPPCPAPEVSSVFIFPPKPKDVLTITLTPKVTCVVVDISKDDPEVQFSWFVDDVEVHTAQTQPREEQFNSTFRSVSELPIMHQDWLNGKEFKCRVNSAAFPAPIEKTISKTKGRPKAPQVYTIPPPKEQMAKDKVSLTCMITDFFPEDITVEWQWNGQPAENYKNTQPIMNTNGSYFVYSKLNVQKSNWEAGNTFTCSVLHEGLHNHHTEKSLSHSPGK
Protocol: as §1, with “CTLA4-muFc” for “PD-L1-muFc”, “CTLA4” for “PD-L1”, “to the” for “to”, “52).” for “53).”

human PD-L1 (WT) = human PD-L1 (WT) (human, UniProt Q9NZQ7 19-238, limits assumed); assay: method not stated; PD-L1 ISVD-9 on human PD-L1 WT
Sequence of human PD-L1 (WT) (Q9NZQ7 19-238 limits assumed): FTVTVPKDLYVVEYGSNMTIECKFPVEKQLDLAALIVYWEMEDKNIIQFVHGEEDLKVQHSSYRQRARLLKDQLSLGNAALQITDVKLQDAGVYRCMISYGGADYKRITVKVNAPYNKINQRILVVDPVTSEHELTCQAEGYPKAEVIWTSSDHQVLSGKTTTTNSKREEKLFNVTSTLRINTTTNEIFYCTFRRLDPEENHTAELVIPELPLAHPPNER

T1 sequence (chain, as listed by the source limits assumed): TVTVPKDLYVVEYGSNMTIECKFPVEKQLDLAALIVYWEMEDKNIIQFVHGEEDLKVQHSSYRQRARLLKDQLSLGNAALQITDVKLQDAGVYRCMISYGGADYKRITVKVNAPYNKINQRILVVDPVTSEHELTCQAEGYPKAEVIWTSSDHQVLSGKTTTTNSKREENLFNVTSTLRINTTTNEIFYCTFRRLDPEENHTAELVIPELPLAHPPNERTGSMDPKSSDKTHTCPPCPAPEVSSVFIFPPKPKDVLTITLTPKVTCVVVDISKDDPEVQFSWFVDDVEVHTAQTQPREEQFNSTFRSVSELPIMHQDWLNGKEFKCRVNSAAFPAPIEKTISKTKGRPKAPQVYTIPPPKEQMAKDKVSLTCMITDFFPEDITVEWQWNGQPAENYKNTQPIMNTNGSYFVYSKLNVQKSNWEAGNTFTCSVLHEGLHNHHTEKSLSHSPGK

EC50 (PD-L1-muFc): ~600 pM
B1: durvalumab (antibody, V domains shown)
VH: EVQLVESGGGLVQPGGSLRLSCAASGFTFSRYWMSWVRQAPGKGLEWVANIKQDGSEKYYVDSVKGRFTISRDNAKNSLYLQMNSLRAEDTAVYYCAREGGWFGELAFDYWGQGTLVTVSS
VL: EIVLTQSPGTLSLSPGERATLSCRASQRVSSSYLAWYQQKPGQAPRLLIYDASSRATGIPDRFSGSGSGTDFTLTISRLEPEDFAVYYCQQYGSLPWTFGQGTKVEIK

EC50 (CTLA4-muFc): ~500 pM
B2: ipilimumab (antibody, V domains shown)
VH: QVQLVESGGGVVQPGRSLRLSCAASGFTFSSYTMHWVRQAPGKGLEWVTFISYDGNNKYYADSVKGRFTISRDNSKNTLYLQMNSLRAEDTAIYYCARTGWLGPFDYWGQGTLVTVSS
VL: not shown

Kd (human PD-L1 (WT)): 5920 pM
B3: PD-L1 ISVD-9 (VHH)
VHH: QVQLVESGGGLVQPGGSLRLSCAASGKMSSRRCMAWFRQAPGKERERVAKLLTTSGSTYLADSVKGRFTISRDNSKNTVYLQMNSLRAEDTAVYYCAADSFEDPTCTLVTSSGAFQYWGQGTLVTVSS
notes: also called aPDL1.9; humanized variant of PD-L1 ISVD-4
